Molecular target: GST-NLE1-Ubl WT (human, UniProt Q9NVX2 11-104)
Test: ITC

Chain of GST-NLE1-Ubl WT (Q9NVX2 11-104): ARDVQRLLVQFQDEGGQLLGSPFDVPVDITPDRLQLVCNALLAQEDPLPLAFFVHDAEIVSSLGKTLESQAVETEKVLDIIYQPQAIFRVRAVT

Kd: 5.5 nM
B1: MDN1-MIDAS-(His)6 (domain or fragment)
chain: ELERQLEMWQPRESGNPEEEKVAAEMWQSYLILTAPLSQRLCEELRLILEGSGKPSKRQYQICLAIDDSSSMVDNHTKQLAFESLAVIGNALTLLEVGQIAVCSFGESVKLLHPFHEQFSDYSGSQILRLCKFQQKKTKIAQFLESVANMFAAAQQLSQNISSETAQLLLVVSDGRGLFLEGKERVLAAVQAARNANIFVIFVVLDNPSSRDSILDIKVPIFKGPGEMPEIRSYMEEFPFPYYIILRDVNALPETLSDALRQWFELVTASDHP
